Laboratory results as given in patent US20110014182A1 (published 2011).
Values belong to the binder of their own block, whether it stands above or below them.

Assays:
[1] = target: T1, human β-amyloid (1-40) peptide (human, UniProt P05067 672-711); assay: competition ELISA, antibody pre-incubated with biotinylated β-amyloid 1-40; competitor immobilised mouse 6F6; Exp 1
T1 construct: domain: β-amyloid (1-40); Used free in solution, coated on plates, or N- or C-terminally biotinylated, as told under assay; also called Aβ peptide (1-40); Aβ1-40
T1 sequence (P05067 672-711 limits assumed): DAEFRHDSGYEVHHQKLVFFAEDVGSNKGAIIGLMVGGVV
Method: (§1) 6F6c and humanised antibodies H11L2, H11L9, H11L10, H11L12 and H11L13 were assessed for their ability to bind Aβ1-40 peptide in solution and inhibit the interaction of human Aβ1-40 peptide with mouse 6F6 monoclonal antibody in a competition ELISA. A constant concentration of biotinylated β-amyloid 1-40 was pre-incubated with serial diluted amounts of humanised 6F6 antibody variants. The mixture including complexed and free amyloid was then added to wells containing immobilised mouse 6F6 monoclonal antibody and incubated for 15 minutes at room temperature. Plates were washed and the amount of free β-amyloid that was still available for binding the immobilised parental 6F6 monoclonal antibody was then detected using streptavidin-HRP conjugate.
(§2) All humanised variants were able to effectively compete for binding to 6F6 parental monoclonal antibody with very similar IC50 values.

[2] = target: T1, human β-amyloid (1-40) peptide; assay: competition ELISA, antibody pre-incubated with biotinylated β-amyloid 1-40; competitor immobilised mouse 6F6; Exp 2
Method: as §1, §2

[3] = target: T1, human β-amyloid (1-40) peptide; assay: SPR (Biacore T100), antibody captured on protein A, human β-amyloid 1-40 at 256-2 nM, 25°C, mean of three experiments
Method: The affinity of selected heavy and light chain combinations was determined using a Biacore T100 instrument. Three independent experiments were performed using humanised antibody immobilised via protein A surface Biacore chips and injection of β-amyloid 1-40 peptides. The chimeric molecule of 6F6 served as a reference molecule. For this Protein A was immobilised on a CM5 chip by primary amine coupling in accordance with manufactures recommendations. Anti-β-amyloid antibodies were captured on this surface and after a period of stabilisation human β-amyloid 1-40 was passed over at concentrations 256-2 nM in halving dilutions. A buffer injection over the captured antibody surface was used to double reference the data set in accordance with Biacore best practice. […] The work was carried out in HBS-EP at 25° C. Results are summarised in Table 13 as the mean of all three experiments.

[4] = target: T1, human β-amyloid (1-40) peptide; assay: ELISA on human Aβ peptide (1-40), in combination with H11
[5] = target: T1, human β-amyloid (1-40) peptide; assay: ELISA on human Aβ peptide (1-40)
[6] = target: T1, human β-amyloid (1-40) peptide; assay: SPR (Biacore T100), antibody captured on anti-human IgG, beta amyloid (1-40), 37°C
Method: Anti-human IgG (Biacore BR-1008-39) was coupled to a CM5 biosensor chip by primary amine coupling. The anti-beta amyloid antibodies were captured on this surface. Beta amyloid (1-40) was then passed over at 256, 64, 16, 4 and 1 nM, with a 0 nM (ie buffer alone passed over the captured antibody surface) used for double referencing. […] The data was analysed using the 1:1 model inherent to the T100. The run was carried out at 25° C. and 37° C. using HBS-EP as the running buffer.
From this panel some constructs were also assessed for binding kinetics at physiological temperature.

B1: humanised antibody H11L2 (antibody, human IgG1, kappa, name in Kabat numbering)
heavy: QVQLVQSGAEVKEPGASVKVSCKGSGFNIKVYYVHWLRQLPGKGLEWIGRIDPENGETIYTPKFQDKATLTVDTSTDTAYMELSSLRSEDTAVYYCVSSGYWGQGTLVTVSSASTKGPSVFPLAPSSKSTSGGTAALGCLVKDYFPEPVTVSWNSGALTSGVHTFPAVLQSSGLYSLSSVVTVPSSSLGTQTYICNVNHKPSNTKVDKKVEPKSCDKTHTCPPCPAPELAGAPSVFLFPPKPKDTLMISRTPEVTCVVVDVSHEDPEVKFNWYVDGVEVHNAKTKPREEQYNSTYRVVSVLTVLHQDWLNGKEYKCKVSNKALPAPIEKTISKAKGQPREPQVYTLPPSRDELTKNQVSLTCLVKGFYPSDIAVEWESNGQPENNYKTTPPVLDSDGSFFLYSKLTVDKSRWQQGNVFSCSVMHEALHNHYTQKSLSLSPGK
light: DIVMTQSPLSLPVTPGEPASISCRSSKSLLHRNGITYLYWYLQKPGQSPQLLIYQMSNLASGVPDRFSSSGSGTDFTLKISRVEAEDVGVYYCAQNLELWTFGQGTKVEIKRTVAAPSVFIFPPSDEQLKSGTASVVCLLNNFYPREAKVQWKVDNALQSGNSQESVTEQDSKDSTYSLSSTLTLSKADYEKHKVYACEVTHQGLSSPVTKSFNRGEC
notes: Human IgG1 Fc mutated, human kappa
IC50 [1]: 0.862 µg/mL
IC50 [2]: 0.578 µg/mL
Kd [3]: 9.57 nM

B2: humanised VL variant L6 in combination with H11 (antibody, human IgG1, kappa, name in Kabat numbering)
heavy: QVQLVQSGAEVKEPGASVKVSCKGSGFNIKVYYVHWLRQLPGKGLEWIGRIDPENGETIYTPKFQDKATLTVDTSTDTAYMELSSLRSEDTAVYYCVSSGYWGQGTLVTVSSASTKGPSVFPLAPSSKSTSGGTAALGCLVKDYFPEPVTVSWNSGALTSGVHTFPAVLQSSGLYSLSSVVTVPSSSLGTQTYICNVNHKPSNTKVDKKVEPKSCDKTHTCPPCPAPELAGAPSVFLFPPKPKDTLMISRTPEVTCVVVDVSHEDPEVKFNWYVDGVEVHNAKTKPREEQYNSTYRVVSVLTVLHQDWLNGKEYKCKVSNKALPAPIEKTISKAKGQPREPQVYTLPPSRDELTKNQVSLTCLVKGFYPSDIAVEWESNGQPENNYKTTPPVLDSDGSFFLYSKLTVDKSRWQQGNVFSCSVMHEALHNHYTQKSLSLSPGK
light: DIVMTQSPLSLPVTPGEPASISCRSSKSLLHRNGITYLYWYLQKPGQPPQLLIYQMSNLASGVPDRFTGSGSGTDFTLKISRVEAEDVGVYYCAQNLELWTFGGGTKLEIKRTVAAPSVFIFPPSDEQLKSGTASVVCLLNNFYPREAKVQWKVDNALQSGNSQESVTEQDSKDSTYSLSSTLTLSKADYEKHKVYACEVTHQGLSSPVTKSFNRGEC
notes: Kabat numbering
binding result [4]: binds

B3: humanised VL variant L8 in combination with H11 (antibody, human IgG1, kappa, name in Kabat numbering)
heavy: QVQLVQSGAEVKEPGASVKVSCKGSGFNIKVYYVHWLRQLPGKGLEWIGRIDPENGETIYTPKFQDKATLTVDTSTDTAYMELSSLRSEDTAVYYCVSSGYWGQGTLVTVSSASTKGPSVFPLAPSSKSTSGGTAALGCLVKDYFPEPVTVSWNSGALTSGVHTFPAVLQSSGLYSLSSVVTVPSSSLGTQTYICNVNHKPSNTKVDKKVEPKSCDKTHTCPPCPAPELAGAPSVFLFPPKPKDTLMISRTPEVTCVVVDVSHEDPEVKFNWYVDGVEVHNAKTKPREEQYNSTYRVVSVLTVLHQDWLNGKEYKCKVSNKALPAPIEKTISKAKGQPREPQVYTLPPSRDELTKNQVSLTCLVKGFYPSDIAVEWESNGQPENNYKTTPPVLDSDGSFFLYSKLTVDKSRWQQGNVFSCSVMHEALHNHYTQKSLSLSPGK
light: DIVMTQSPLSLPVTPGEPASISCRSSKSLLHRNGITYLYWYLQKPGQPPQLLIYQMSNLASGVPDRFTGSGSGTDFTLKISRVEAEDVGVYYCAQNLELWTFGQGTKVEIKRTVAAPSVFIFPPSDEQLKSGTASVVCLLNNFYPREAKVQWKVDNALQSGNSQESVTEQDSKDSTYSLSSTLTLSKADYEKHKVYACEVTHQGLSSPVTKSFNRGEC
notes: Kabat numbering
binding result [4]: binds

B5: humanised VH variant H23 in combination with L2 light chain (antibody, human IgG1, kappa, name in Kabat numbering, V domains shown)
VH: QVQLVQSGAEVKKPGASVKVSCKGSGFNIKVYYVHWLRQAPGKGLEWIGRIDPENGETIYTPKFQDRVTMTEDTSTDTAYMELSSLRSEDTAVYYCVSSGYWGQGTLVTVSS
VL: DIVMTQSPLSLPVTPGEPASISCRSSKSLLHRNGITYLYWYLQKPGQSPQLLIYQMSNLASGVPDRFSSSGSGTDFTLKISRVEAEDVGVYYCAQNLELWTFGQGTKVEIKR
notes: Kabat numbering
binding result [5]: binds

B7: humanised VH variant H28 in combination with L2 light chain (antibody, human IgG1, kappa, name in Kabat numbering)
heavy: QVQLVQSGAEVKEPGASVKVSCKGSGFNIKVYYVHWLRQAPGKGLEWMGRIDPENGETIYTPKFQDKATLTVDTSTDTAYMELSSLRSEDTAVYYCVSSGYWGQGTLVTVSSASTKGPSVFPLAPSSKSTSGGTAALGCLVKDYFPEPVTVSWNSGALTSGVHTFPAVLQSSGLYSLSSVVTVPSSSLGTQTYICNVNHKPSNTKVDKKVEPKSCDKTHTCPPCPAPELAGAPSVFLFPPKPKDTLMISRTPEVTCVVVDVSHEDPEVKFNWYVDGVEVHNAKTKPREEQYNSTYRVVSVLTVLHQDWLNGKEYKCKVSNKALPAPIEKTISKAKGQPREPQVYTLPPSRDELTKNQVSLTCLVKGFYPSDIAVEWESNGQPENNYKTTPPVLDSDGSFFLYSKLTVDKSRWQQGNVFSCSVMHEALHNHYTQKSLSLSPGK
light: DIVMTQSPLSLPVTPGEPASISCRSSKSLLHRNGITYLYWYLQKPGQSPQLLIYQMSNLASGVPDRFSSSGSGTDFTLKISRVEAEDVGVYYCAQNLELWTFGQGTKVEIKRTVAAPSVFIFPPSDEQLKSGTASVVCLLNNFYPREAKVQWKVDNALQSGNSQESVTEQDSKDSTYSLSSTLTLSKADYEKHKVYACEVTHQGLSSPVTKSFNRGEC
notes: Kabat numbering
binding result [5]: binds

B9: humanised VH variant H29 in combination with L2 light chain (antibody, human IgG1, kappa, name in Kabat numbering)
heavy: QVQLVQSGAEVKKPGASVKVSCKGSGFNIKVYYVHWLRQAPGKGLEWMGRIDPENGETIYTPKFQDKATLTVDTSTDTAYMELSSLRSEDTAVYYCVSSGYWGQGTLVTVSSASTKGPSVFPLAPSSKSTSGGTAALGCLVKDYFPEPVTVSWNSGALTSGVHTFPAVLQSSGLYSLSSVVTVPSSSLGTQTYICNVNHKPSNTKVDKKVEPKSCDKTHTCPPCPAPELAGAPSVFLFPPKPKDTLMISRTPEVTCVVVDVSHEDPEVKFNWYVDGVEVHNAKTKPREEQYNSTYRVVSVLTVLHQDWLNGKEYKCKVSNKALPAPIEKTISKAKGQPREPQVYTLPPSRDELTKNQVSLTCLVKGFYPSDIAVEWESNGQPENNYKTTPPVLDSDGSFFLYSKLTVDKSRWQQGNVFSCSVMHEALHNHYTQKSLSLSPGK
light: DIVMTQSPLSLPVTPGEPASISCRSSKSLLHRNGITYLYWYLQKPGQSPQLLIYQMSNLASGVPDRFSSSGSGTDFTLKISRVEAEDVGVYYCAQNLELWTFGQGTKVEIKRTVAAPSVFIFPPSDEQLKSGTASVVCLLNNFYPREAKVQWKVDNALQSGNSQESVTEQDSKDSTYSLSSTLTLSKADYEKHKVYACEVTHQGLSSPVTKSFNRGEC
notes: Kabat numbering
binding result [5]: binds

B10: humanised VH variant H25 in combination with L2 light chain (antibody, human IgG1, kappa, name in Kabat numbering, V domains shown)
VH: QVQLVQSGAEVKKPGASVKVSCKGSGFNIKVYYVHWLRQAPGKGLEWIGRIDPENGETIYTPKFQDRVTLTEDTSTDTAYMELSSLRSEDTAVYYCVSSGYWGQGTLVTVSS
VL: DIVMTQSPLSLPVTPGEPASISCRSSKSLLHRNGITYLYWYLQKPGQSPQLLIYQMSNLASGVPDRFSSSGSGTDFTLKISRVEAEDVGVYYCAQNLELWTFGQGTKVEIKR
notes: Kabat numbering
binding result [5]: binds

B11: humanised VH variant H27 in combination with L2 light chain (antibody, human IgG1, kappa, name in Kabat numbering, V domains shown)
VH: QVQLVQSGAEVKEPGASVKVSCKGSGFNIKVYYVHWLRQAPGKGLEWMGRIDPENGETIYTPKFQDKATMTVDTSTDTAYMELSSLRSEDTAVYYCVSSGYWGQGTLVTVSS
VL: DIVMTQSPLSLPVTPGEPASISCRSSKSLLHRNGITYLYWYLQKPGQSPQLLIYQMSNLASGVPDRFSSSGSGTDFTLKISRVEAEDVGVYYCAQNLELWTFGQGTKVEIKR
notes: Kabat numbering
binding result [5]: binds

B12: humanised VH variant H26 in combination with L2 light chain (antibody, human IgG1, kappa, name in Kabat numbering, V domains shown)
VH: QVQLVQSGAEVKKPGASVKVSCKGSGFNIKVYYVHWLRQAPGKGLEWIGRIDPENGETIYTPKFQDRVTLTEDTSSDTAYMELSSLRSEDTAVYYCVSSGYWGQGTLVTVSS
VL: DIVMTQSPLSLPVTPGEPASISCRSSKSLLHRNGITYLYWYLQKPGQSPQLLIYQMSNLASGVPDRFSSSGSGTDFTLKISRVEAEDVGVYYCAQNLELWTFGQGTKVEIKR
notes: Kabat numbering
binding result [5]: binds

Second part, the binder after the results:

IC50 [1]: 0.616 µg/mL
IC50 [2]: 0.531 µg/mL
Kd [3]: 7.41 nM
B4: humanised antibody H11L13 (antibody, human IgG1, kappa, name in Kabat numbering)
heavy: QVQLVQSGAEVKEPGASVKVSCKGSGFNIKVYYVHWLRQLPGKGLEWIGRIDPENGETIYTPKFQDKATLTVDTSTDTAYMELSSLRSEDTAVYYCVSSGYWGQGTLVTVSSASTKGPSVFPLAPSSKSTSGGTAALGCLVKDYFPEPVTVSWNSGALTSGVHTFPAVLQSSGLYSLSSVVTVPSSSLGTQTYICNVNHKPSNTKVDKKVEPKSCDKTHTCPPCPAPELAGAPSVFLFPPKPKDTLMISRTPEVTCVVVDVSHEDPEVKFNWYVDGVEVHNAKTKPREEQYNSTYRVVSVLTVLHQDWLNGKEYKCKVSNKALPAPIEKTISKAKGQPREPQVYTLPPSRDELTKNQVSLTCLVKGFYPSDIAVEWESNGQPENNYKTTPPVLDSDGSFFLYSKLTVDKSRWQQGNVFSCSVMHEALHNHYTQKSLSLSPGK
light: DIVMTQSALSLPVTPGEPASISCRSSKSLLHRNGITYLYWYLQKPGQPPQLLIYQMSNLASGVPDRFSGSGSGTDFTLKISRVEAEDVGVYYCAQNLELWTFGQGTKVEIKRTVAAPSVFIFPPSDEQLKSGTASVVCLLNNFYPREAKVQWKVDNALQSGNSQESVTEQDSKDSTYSLSSTLTLSKADYEKHKVYACEVTHQGLSSPVTKSFNRGEC

IC50 [1]: 0.561 µg/mL
IC50 [2]: 0.549 µg/mL
Kd [3]: 6.95 nM
B6: humanised antibody H11L12 (antibody, human IgG1, kappa, name in Kabat numbering)
heavy: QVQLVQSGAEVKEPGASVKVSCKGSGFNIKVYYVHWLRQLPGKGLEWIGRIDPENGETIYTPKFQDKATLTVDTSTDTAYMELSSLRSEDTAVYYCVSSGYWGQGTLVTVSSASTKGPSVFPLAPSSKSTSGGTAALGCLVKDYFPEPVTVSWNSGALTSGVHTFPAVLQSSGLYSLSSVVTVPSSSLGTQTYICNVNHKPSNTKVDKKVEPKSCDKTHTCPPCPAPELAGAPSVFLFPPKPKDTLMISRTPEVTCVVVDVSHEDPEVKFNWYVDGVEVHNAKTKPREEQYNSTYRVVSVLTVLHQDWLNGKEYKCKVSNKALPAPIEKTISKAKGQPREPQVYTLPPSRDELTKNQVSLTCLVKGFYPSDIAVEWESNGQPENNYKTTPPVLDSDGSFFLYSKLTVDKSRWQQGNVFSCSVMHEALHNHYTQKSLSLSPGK
light: DIVMTQSPLSNPVTPGEPASISCRSSKSLLHRNGITYLYWYLQKPGQPPQLLIYQMSNLASGVPDRFSGSGSGTDFTLKISRVEAEDVGVYYCAQNLELWTFGQGTKVEIKRTVAAPSVFIFPPSDEQLKSGTASVVCLLNNFYPREAKVQWKVDNALQSGNSQESVTEQDSKDSTYSLSSTLTLSKADYEKHKVYACEVTHQGLSSPVTKSFNRGEC

IC50 [1]: 0.622 µg/mL
Kd [3]: 5.57 nM
B8: humanised antibody H11L10 (antibody, human IgG1, kappa, name in Kabat numbering)
heavy: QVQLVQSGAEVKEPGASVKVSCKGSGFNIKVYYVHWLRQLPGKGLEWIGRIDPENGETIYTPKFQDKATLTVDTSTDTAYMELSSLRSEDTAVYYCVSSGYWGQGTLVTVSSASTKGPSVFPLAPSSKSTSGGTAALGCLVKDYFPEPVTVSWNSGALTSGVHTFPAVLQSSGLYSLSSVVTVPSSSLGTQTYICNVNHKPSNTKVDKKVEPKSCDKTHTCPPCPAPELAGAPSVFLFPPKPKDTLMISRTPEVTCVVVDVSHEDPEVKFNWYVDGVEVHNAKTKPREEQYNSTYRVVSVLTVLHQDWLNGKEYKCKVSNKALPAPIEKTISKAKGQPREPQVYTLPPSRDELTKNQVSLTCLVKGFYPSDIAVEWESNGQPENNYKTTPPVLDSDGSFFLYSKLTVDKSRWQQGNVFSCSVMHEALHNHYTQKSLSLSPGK
light: DIVMTQSALSLPVTPGEPASISCRSSKSLLHRNGITYLYWYLQKPGQSPQLLIYQMSNLASGVPDRFSSSGSGTDFTLKISRVEAEDVGVYYCAQNLELWTFGQGTKVEIKRTVAAPSVFIFPPSDEQLKSGTASVVCLLNNFYPREAKVQWKVDNALQSGNSQESVTEQDSKDSTYSLSSTLTLSKADYEKHKVYACEVTHQGLSSPVTKSFNRGEC

binding result [4]: binds
B13: humanised VL variant L7 in combination with H11 (antibody, human IgG1, kappa, name in Kabat numbering, V domains shown)
VH: QVQLVQSGAEVKEPGASVKVSCKGSGFNIKVYYVHWLRQLPGKGLEWIGRIDPENGETIYTPKFQDKATLTVDTSTDTAYMELSSLRSEDTAVYYCVSSGYWGQGTLVTVSS
VL: DIVMTQSPLSLPVTPGEPASISCRSSKSLLHRNGITYLYWYLQKPGQPPQLLIYQMSNLASGVPDRFSSSGSGTDFTLKISRVEAEDVGVYYCAQNLELWTFGQGTKVEIKR
notes: Kabat numbering

binding result [4]: binds
B14: humanised VL variant L4 in combination with H11 (antibody, human IgG1, kappa, name in Kabat numbering, V domains shown)
VH: QVQLVQSGAEVKEPGASVKVSCKGSGFNIKVYYVHWLRQLPGKGLEWIGRIDPENGETIYTPKFQDKATLTVDTSTDTAYMELSSLRSEDTAVYYCVSSGYWGQGTLVTVSS
VL: DIVMTQSPLSLPVTPGEPASISCRSSKSLLHRNGITYLYWYLQKPGQSPQLLIYQMSNLASGVPDRFTGSGSGTDFTLKISRVEAEDVGVYYCAQNLELWTFGQGTKVEIKR
notes: Kabat numbering

binding result [5]: binds
B15: humanised VH variant H21 in combination with L2 light chain (antibody, human IgG1, kappa, name in Kabat numbering, V domains shown)
VH: QVQLVQSGAEVKKPGASVKVSCKGSGFNIKVYYVHWLRQLPGKGLEWMGRIDPENGETIYTPKFQDRVTMTEDTSTDTAYMELSSLRSEDTAVYYCVSSGYWGQGTLVTVSS
VL: DIVMTQSPLSLPVTPGEPASISCRSSKSLLHRNGITYLYWYLQKPGQSPQLLIYQMSNLASGVPDRFSSSGSGTDFTLKISRVEAEDVGVYYCAQNLELWTFGQGTKVEIKR

binding result [5]: binds
B16: humanised VH variant H24 in combination with L2 light chain (antibody, human IgG1, kappa, name in Kabat numbering, V domains shown)
VH: QVQLVQSGAEVKKPGASVKVSCKGSGFNIKVYYVHWLRQAPGKGLEWMGRIDPENGETIYTPKFQDRVTMTEDTSSNTAYMELSSLRSEDTAVYYCVSSGYWGQGTLVTVSS
VL: DIVMTQSPLSLPVTPGEPASISCRSSKSLLHRNGITYLYWYLQKPGQSPQLLIYQMSNLASGVPDRFSSSGSGTDFTLKISRVEAEDVGVYYCAQNLELWTFGQGTKVEIKR
notes: Kabat numbering

Kd [6]: 4.72 nM
B17: humanised de-immunised construct H48L17 (antibody, name in Kabat numbering, V domains shown)
VH: QVQLVQSGAEVKEPGASVKVSCKGSGFNIHVYYVHWLRQLPEKGLEWIGRIDPENGETIYTPKFQDKATLTVDTSTDTAYMELSSLRSEDTAVYYCVSSGYWGQGTLVTVSS
VL: DIVMTQSPLSNPVTPGEPASISCRSSKSLLHRNGITYLYWYLQKPGQSPQLLIYQMSHLASGVPDRFSSSGSGTDFTLKISRVEAEDVGVYYCAQNLELWTFGQGTKVEIK
